Laboratory results as given in US11459369B2, “Fusion protein for alpha-melanocyte stimulating hormone and preparation method and use thereof” (LANZHOU UNIVERSITY, priority 2015, dated 2022).

Key:
[1] = Validation of the ability to cross the BBB: level of fusion protein in hippocampal tissue homogenate by HSA ELISA; format: in vivo; settings: mice, 1 μm/kg single intravenous injection, hippocampal tissue 6 h after administration
Protocol: Validation of the Ability to Across BBB of PTD-HSA-L-α-MSH
HSA Elisa Kit (cygnustechnologies).
10 mice (18-22 g) were used in the experiment, and were purchased from Laboratory Animal Center of Lanzhou University.
Mice were housed in groups of at most five animals per cage with clean water and food available ad libitum. PTD-HSA-L-α-MSH or HSA-L-α-MSH were given at a dosage of 1 μm/kg through a single intravenous injection in 150 μL volume. Mice were anesthetized 6 h after drug administration. The hippocampal tissue was harvest and homogenized immediately. Finally the level of PTD-HSA-L-α-MSH or HSA-L-α-MSH in hippocampal tissue homogenate was tested by ELISA.

TNF-α = test: Experimental brain inflammation of mouse induced by LPS: TNF-α in hippocampal tissue homogenate by ELISA; format: in vivo; settings: mice
From the text: Neuroprotection of TAT-HSA-α-MSH on Experimental Brain Inflammation in Mice
TNF-a Elisa Kit (Dakewei, China).
20 mice (18-22 g) were used in the experiment, and were purchased from Laboratory Animal Center of Lanzhou University.
Lipopolysaccharide (LPS), a gram negative bacterial endotoxin, is the cell wall component of gram negative bacteria. Within the CNS, LPS challenge triggers central inflammatory responses, which results in releasing of proinflammatory mediators such as TNF-α. Therefore, to determine whether the described PTD-HSA-L-α-MSH can inhibit the production of pro-inflammatory factors in vivo, experimental brain inflammation of mouse induced by LPS was established, in which TNF-α was analyzed to detect the efficacy of PTD-HSA-L-α-MSH.
Mice were housed in groups of at most five animals per cage with clean water and food available ad libitum. The mice in control group were injected with 150 μL saline two times. The mice in LPS group were injected with 150 μL LPS at the dose of 5 mg/kg, and then injected with 150 μL saline. The mice in PTD-HSA-L-α-MSH+LPS group were injected with 150 μL LPS at the dose of 5 mg/kg, and then injected with 150 μL PTD-HSA-L-α-MSH at the dose of 1 μm/kg. The mice in α-MSH+LPS group were injected with 150 μL LPS at the dose of 5 mg/kg, and then injected with 150 μL α-MSH at the dose of 1 μm/kg. Mice were anesthetized 2 h after drug administration. […]

[2] = rat, iv administration, full length peptide; cited from earlier work

HSA-L-α-MSH: fusion protein of HSA, linker and α-MSH without PTD; amino acid sequence SEQ ID NO:10, about 69 KDa; comparator
PTD-HSA-L-α-MSH(ng/mL), level in hippocampal tissue homogenate tested by ELISA [1]: 0.06 ± 0.02 ng/mL

α-Melanocyte stimulating hormone [α-MSH, reference compound]
TNF-α (pg/mg protein) in hippocampal tissues tested by ELISA (TNF-α; LPS 5 mg/kg then substance 1 μm/kg, hippocampal tissue 2 h after administration): 155.8 ± 10.3 pg/mg protein | effect on TNF-α increase compared with LPS group (TNF-α; LPS 5 mg/kg, single dose of 1 μm/kg intraperitoneally): could not be suppressed | half-life [2]: a few minutes
